Source: patent publication US9975933B2, “Tumor tissue-penetrating peptide specific to neuropilin and fusion protein having same peptide fused therein” (AJOU UNIVERSITY INDUSTRY-ACADEMIC COOPERATION FOUNDATION, priority 2013, dated 2018)

How the values were obtained:
[1] = test system: VE-cadherin in HUVEC; assay: Western blot of VE-cadherin in HUVEC; format: cell-based, human; settings: single peptides and Fc-TPP 1 μM, 10 minutes
Source text: During this process, a decrease in vascular endothelial (VE)-cadherin, phosphorylation, etc. of endothelial cells occur. That is, VE-cadherin or epithelial (E)-cadherin involves in adhesion between endothelial cells, while forming the base of adherent junction between endothelial cells and epithelial cells. The change in molecules relieve the density of adherent junction, which results in increasing permeability of blood vessels and improving intracellular permeability.
As an experimental method for indirectly confirming improvement of vascular permeability based thereon, a change in VE-cadherin was confirmed through a Western blot. Specifically, HUVECs were seeded into 6-well plates at a density of 3×10^5 per well, followed by incubation for 24 hours. Thereafter, single peptides and Fc-TPP were treated with 1 μM for 10 minutes to perform a Western blot. Gel subjected to SDS-PAGE was transported into PVDF membrane, a primary antibody (SantaCruz) and an HRP-conjugated secondary antibody (SantaCruz) which recognize VE-cadherin and (3-actin, respectively were used for detection. ImageQuant LAS4000 mini (GE Healthcare) was used for analysis.

[2] = test system: E-cadherin in FaDu; assay: Western blot of E-cadherin in FaDu; format: cell-based, human
Experimental: In order to confirm the effect of TPP on cancer cells, a change in E-cadherin was analyzed in human head and neck cancer cell line FaDu, under the same conditions as above experiments through Western blot.

[3] = target: T1, NRP1-b1b2 (b1b2 domain of neuropilin-1) (Homo sapiens, UniProt O14786); assay: SPR (Biacore2000) binding to b1b2 domain of neuropilin-1; settings: for Association rate ka / Dissociation rate kd / Kd: NRP1-b1b2, SPR; for Kd: read-out: Binding affinity KD
T1 construct: b1b2 domains (273-586) of neuropilin-1
Experimental: (§1) Specifically, each b1b2 domain of neuropilin-1 and -2 was diluted with 10 mM Na-acetate buffer (pH 4.0), and fixed onto CMS sensor chips (GE healthcare, USA) in about 1000 response units (RU). […] After bond and dissociation analysis, the regeneration of CMS chip was performed by streaming a buffer (20 Mm NaOH, 1 M NaCl, pH 10.0) at a stream velocity 30 μl/min for 1 minute.

[4] = target: T2, NRP2-b1b2 (b1b2 domain of neuropilin-2) (Homo sapiens, UniProt O60462); assay: SPR (Biacore2000) binding to b1b2 domain of neuropilin-2; settings: for Kd: read-out: Binding affinity KD
T2 construct: b1b2 domains (275-595) of neuropilin-2
T2 sequence (O60462 275-595): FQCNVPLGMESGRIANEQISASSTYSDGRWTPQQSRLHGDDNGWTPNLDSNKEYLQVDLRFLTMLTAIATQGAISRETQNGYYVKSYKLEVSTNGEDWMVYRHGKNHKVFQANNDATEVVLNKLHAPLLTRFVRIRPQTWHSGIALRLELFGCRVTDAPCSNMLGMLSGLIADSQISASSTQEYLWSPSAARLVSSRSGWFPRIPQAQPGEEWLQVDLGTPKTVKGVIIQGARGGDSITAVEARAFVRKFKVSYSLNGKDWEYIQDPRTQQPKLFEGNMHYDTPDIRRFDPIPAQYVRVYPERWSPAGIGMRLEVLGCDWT
Experimental: as §1

[5] = test system: HUVEC; assay: Transwell assay of vascular endothelial cell permeability; format: cell-based, human; settings: 30 minutes
Experimental: Based on the above experimental results, as experiments for confirming the improvement of vascular endothelial cell permeability, single peptides and Fc-TPP were treated to conduct Transwell assay.
Specifically, HUVECs were seeded into Transwell plate (Corning) at a density of 5×10^4 per well in a upper chamber using Endothelial Growth Medium, PromoCell (EGM) medium, followed by incubation at 37° C. for 3 days under 5% CO2 condition. […] Thereafter, Dextran-FITC (Sigma) 50 μg was put into the upper chamber and the medium of the lower chamber was sampled to measure its fluorescence after 30 minutes, using the principle that a fluorescent substance is observed in the lower chamber when the permeability in HUVECs was improved.

[6] = test system: A431 tumor; assay: IHC of Fc-TPP infiltration in A431 tumor tissue; format: in vivo, Balb/c nude mice; settings: A431 xenograft, 5 mg/kg intravenously, 3 hours
Experimental: 3 hours after injection, tumors were extracted from mice to conduct immunohistochemistry experiment. The extracted tumors were cut into 20 μm thick using a frozen section method, and stained with a primary antibody, CD31 antibody (BD Pharmingen), and a TRITC (red fluorescence)-conjugated secondary antibody. Further, in order to observe Fc-TPP distributed in the tissues, FITC (green fluorescence)-conjugated antibodies recognizing Fc were used.

[7] = test system: neuropilin-1 and -2 expressed on cell surface (SK-OV-3); assay: FACS binding to neuropilin-1 and -2 expressed on cell surface; format: cell-based, human
Experimental: Specifically, after incubating human ovarian cancer cell line (SK-OV-3) under conditions of 5% CO2 and 37° C., 1×10^5 cells per sample were resuspended in a PBS buffer supplemented with 2% BSA and transferred to a FACS tube for conducting experiments.
Then, the mixture was reacted with cell line SK-OV-3 at 4° C. for 1 hour in the same manner and proteins were stained for conducting FACS analysis. […] This means that Fc-TPP binds specifically to neuropilin-1 and -2.
This means that the binding of Fc-TPP to neuropilin-1 and -2 is specific similar to the original ligands.

[8] = test system: PPC-1 cells; assay: Confocal microscopy of intracellular penetration and co-localization with neuropilin; format: cell-based, human; settings: 1 μM, 37° C., 1 hour
Experimental: In order to confirm whether Fc-TPP has intracellular penetrating capacity by neuropilin-1 and -2, like other neuropilin ligands having intracellular penetrating capacity, confocal microscopy was used to observe intracellular penetration and co-localization with neuropilin-1 and -2.
Specifically, 5×10^4 PPC-1 cells were plated into 24-well plates containing DMEM medium 0.5 ml supplemented with 10% FBS per well, followed by incubation at 37° C. for 24 hours at 5% CO2. When the cells were stabilized, each well was washed with PBS 0.5 ml. […] After the medium was removed and each well was washed with PBS, Fc-TPP was stained with an antibody (Sigma) which specifically recognizes the FITC (green fluorescence)-conjugated Fc, and neuropilin-1 and -2 was stained with a primary antibody (SantaCruz) which recognizes each of them and with a TRITC (red fluorescence)-conjugated secondary antibody (Sigma). Nuclei were stained (blue fluorescence) with DAPI and observed under confocal microscopy.

[9] = test system: FaDu tumor; assay: In vivo Evans Blue assay of vascular permeability; set-up: species or system Balb/c nude mice; settings: FaDu xenograft, 400 ng, 40 minutes
Experimental: Additionally, in order to confirm the improvement of vascular permeability in vivo, Evans Blue assay was conducted. […] 40 minutes after injection, the mice were perfused through the heart with PBS containing 1% BSA, and tumor tissues were extracted (FIG. 11d). Then, the extracted tissues were put into 1 ml of […] (Sigma) and reacted at 37° C. overnight under mild shaking condition. Thereafter, the supernatant was obtained from centrifugation to measure the absorbance (600 nm), and the amount that Evans Blue penetrated was quantified.

[10] = test system: HUVEC; assay: Tube formation assay in HUVEC; format: cell-based, human; settings: VEGF165A 20 ng/ml, 8 hours
Experimental: As an experiment confirming angiogenesis in vitro based thereon, tube formation assay was conducted. As an experimental method, 50 μl of ECMatrix was injected into 96-well plates and polymerized at 37° C. for 2 hours. […] The incubated cells were observed by a microscope to obtain images.

[11] = single peptides and Fc-TPP 1 μM

T1 sequence (O14786 273-586): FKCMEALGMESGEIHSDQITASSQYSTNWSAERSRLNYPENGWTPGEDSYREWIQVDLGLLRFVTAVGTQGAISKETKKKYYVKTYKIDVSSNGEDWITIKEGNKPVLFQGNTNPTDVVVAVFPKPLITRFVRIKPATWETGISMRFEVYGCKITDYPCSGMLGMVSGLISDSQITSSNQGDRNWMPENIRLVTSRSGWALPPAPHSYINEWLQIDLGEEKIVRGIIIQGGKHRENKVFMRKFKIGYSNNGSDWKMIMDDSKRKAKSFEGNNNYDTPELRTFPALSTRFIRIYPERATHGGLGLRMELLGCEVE

| difference in binding affinity between GAGA linker and (GGGGS)3 linker clones ([3]; Fc-4A22 compared with Fc-15A22, b1b2 of neuropilin-1 and -2) | Association rate ka [3] | Dissociation rate kd [3] | Kd [3] | Association rate ka [4] | Dissociation rate kd [4] | Kd [4] | Substance | change in VE-cadherin (Western blot) [1] | change in E-cadherin (Western blot) [2] | permeability of HUVEC (Transwell, Dextran-FITC) [5, 11] | infiltration into tumor tissue (IHC) [6] | cell binding capacity after reaction in advance with b1b2 domains of neuropilin-1 and -2 ([7]; 1 μM protein, 2 μM b1b2 domains, SK-OV-3) | cell binding capacity when mixed with parent ligand Sema3A or Sema3F ([7]; Sema3A (Fc-15A22P) / Sema3F (Fc-15F22P) 100 μg/ml) | cell binding capacity when mixed with VEGF165A ([7]; VEGF165A 1 μg/ml) | co-localization with neuropilin-1 and -2 [8] | intracellular penetration (confocal microscopy) [8] | vascular permeability (Evans Blue) [9] | permeability of HUVEC (Transwell, Dextran-FITC) ([5]; control ligands about 1.3 nM) | tube formation of HUVEC [10] |
| --- | --- | --- | --- | --- | --- | --- | --- | --- | --- | --- | --- | --- | --- | --- | --- | --- | --- | --- | --- |
| about 10 times | 4.86 ± 0.98 × 10^3 M^−1s^−1 | 2.95 ± 0.04 × 10^−2 s^−1 | 6.06 µM | 3.94 ± 0.42 × 10^3 M^−1s^−1 | 3.87 ± 0.09 × 10^−2 s^−1 | 9.8 µM | Fc-15A22: Human IgG1 Fc with TPP 15A22 (SEQ ID NO: 6) fused to its C-terminus (GGGGSGGGGSGGGGSHTPGNSNKWKHLQENKKGRNRR) | VE-cadherin was decreased | induced a decrease in E-cadherin | permeability of HUVEC was improved | infiltrated into tumor cells |  |  |  |  |  |  |  |  |
|  | 1.73 ± 0.26 × 10^4 M^−1s^−1 | 1.38 ± 0.12 × 10^−3 s^−1 | 0.0797 µM | 1.34 ± 0.24 × 10^4 M^−1s^−1 | 1.23 ± 0.16 × 10^−3 s^−1 | 0.0924 µM | Fc-15F22p: Human IgG1 Fc with TPP 15F22p (SEQ ID NO: 10) fused to its C-terminus (GGGGSGGGGSGGGGSREAPGAPRSPEPQDQKKPRPRR) | induced a decrease in VE-cadherin | E-cadherin was decreased | improvement of vascular permeability was induced |  | remarkably reduced | reduced | reduced | co-localized with neuropilin-1 and -2 | penetrated into cells |  |  |  |
|  | 9.75 ± 0.53 × 10^5 M^−1s^−1 | 3.42 ± 0.29 × 10^−3 s^−1 |  | 1.17 ± 0.12 × 10^5 M^−1s^−1 | 3.73 ± 0.19 × 10^−3 s^−1 |  | VEGF165: Vascular endothelial cell growth factor-A isoform, neuropilin ligand, control group [reference compound] | a decrease in VE-cadherin was observed |  |  |  |  |  |  |  |  | increased vascular permeability | permeability of HUVEC was improved | increased tube formation |
